Experimental data taken from patent publication US20250034266A1 (ZAI LAB SHANGHAI, published 2025).
Read-outs that look alike come from different tables or passages of the source.

Tests used:
human CCR8 [1] = biological target: T1, human CCR8 (human, UniProt P51685 1-355); assay: cell-based or functional assay
cynomolgus CCR8 [2] = biological target: T2, cynomolgus CCR8 (cynomolgus, UniProt G7NYJ2 1-355); assay: FACS on HEK293-cynomolgus CCR8 cells
T2 construct: whole, on cells
Method: (§1) A total of 5×10⁴ cells for each well were seeded in 96-well plates and washed with FACS buffer (DPBD containing 1.5% FBS) for once. Antibodies were prepared with 3-fold serial dilution ranging from 100 nM to 0.0017 nM in FACS buffer. Cells were incubated with 50 μL of diluted antibodies at 4° C. for 1 hour. […] After primary antibody incubation, cells were washed for 3 times by FACS buffer. Then, cells were stained by Alexa Flu647 labeled anti-human IgG secondary antibody (Jackson ImmunoResearch, #109606170) or Alexa Flu647 labeled anti-mouse IgG secondary antibody (Jackson ImmunoResearch, #115605072) at 1:600 dilution in FACS buffer for 0.5 hour at 4° C. After washed for 3 times, Flow cytometry was performed to measure the binding.

human CCR8 [3] = biological target: T1, human CCR8; assay: FACS on HEK293-human CCR8 cells
Method: as §1

human CCR8 [4] = biological target: T1, human CCR8; assay: FACS, competition with AF647-human CCL1 on CHO-K1-human CCR8 cells
cynomolgus CCR8 [5] = biological target: T2, cynomolgus CCR8; assay: FACS on ExpiCHO-S-cynomolgus CCR8 cells
human CCR8 [6] = biological target: T1, human CCR8; assay: FACS, competition with AF647-human CCL1 on CHO-K1-human CCR8 cells; remark: listed apart in the source
human CCR8 [7] = biological target: T1, human CCR8; assay: FACS on HEK293-human CCR8 cells; remark: listed apart in the source
human CCR8 [8] = biological target: T1, human CCR8; assay: FACS of purified scFv on CHO-K1-human CCR8 cells
human CCR8 [9] = biological target: T1, human CCR8; assay: FACS, competition with AF647-human CCL1 on CHO-K1-human CCR8 cells; remark: listed apart in the source
Method: Blocking curves were generated to rank the blocking activities of PTM sites removed antibodies. Briefly, a total of 5×10⁴ CHO-K1-human CCR8 cells for each well were seeded in 96-well plate. Cells were incubated by series diluted purified hybridoma antibodies and 4 nM AF647 labeled human CCL1 (Almac, #CAF-07) for 1 hour at 4° C. Antibodies were prepared with 3-fold serial dilution ranging from 100 nM to 0.0051 nM in FACS buffer. Then, cells were washed by FACS buffer for three times after incubation. […] FlowJo software was used for analysis. Data was plotted as the logarithm of antibody concentration versus mean fluorescence signals. IC₅₀ values were determined in GraphPad Prism 8 (GraphPad Software) using a log(agonist) vs. response-Variable slope (4 parameters) curve fit.

human CCR8 [10] = biological target: T1, human CCR8; assay: FACS, competition with AF647-human CCL1 on HEK293-human CCR8 cells
Method: (§2) Antibodies were prepared with 3-fold serial dilution ranging from 200 nM to 0.01 nM in FACS buffer. Then, cells were washed by FACS buffer for three times after incubation. […] FlowJo software was used for analysis. Data was plotted as the logarithm of antibody concentration versus mean fluorescence signals. IC₅₀ values were determined in GraphPad Prism 8 (GraphPad Software) using a log(agonist) vs. response-Variable slope (4 parameters) curve fit.

human CCR8 [11] = biological target: T1, human CCR8; assay: FACS on HEK293-human CCR8 cells; remark: listed apart in the source
Method: (§3) Binding affinities of NG site removed antibodies were determined on human CCR8 and cynomolgus CCR8 overexpression cells. Briefly, CFSE labeled HEK293-human CCR8 cells or CFSE labeled HEK293-cynomolgus CCR8 cells were mixed with HEK293 cells. The mixed ratio was 1:1. A total of 5×10⁴ mixed cells for each well were seeded in 96-well plates and washed by FACS buffer (DPBS containing 1% FBS) once. Cells were incubated by serial diluted purified hybridoma antibodies for 1 hour at 4° C. Antibodies were prepared with 3-fold serial dilution ranging from 100 nM to 0.0017 nM or from 25.3165 nM to 0.0004 nM in FACS buffer. […] After primary antibody incubation, cells were washed by FACS buffer for three times. Then, cells were stained with secondary antibody (Alexa Flu647-conj gated rabbit anti-mouse IgG, Jackson ImmunoResearch, #315606046) at 1:600 dilution in FACS buffer, incubated for 0.5 hour at 4° C. […] FlowJo software was used for analysis. Data was plotted as the logarithm of antibody concentration versus mean fluorescence signals. EC₅₀ values were calculated in GraphPad Prism 8 (GraphPad Software) using a log (agonist) vs. response-Variable slope (4 parameters) curve fit.

human CCR8 [12] = biological target: T1, human CCR8; assay: cell-based or functional assay; remark: listed apart in the source
human CCR8 [13] = biological target: T1, human CCR8; assay: FACS, competition with AF647-human CCL1 on CHO-K1-human CCR8 cells; remark: listed apart in the source
Method: as §2

cynomolgus CCR8 [14] = biological target: T2, cynomolgus CCR8; assay: FACS on HEK293-cynomolgus CCR8 cells; remark: listed apart in the source
Method: as §3

T1 sequence (P51685 whole entry): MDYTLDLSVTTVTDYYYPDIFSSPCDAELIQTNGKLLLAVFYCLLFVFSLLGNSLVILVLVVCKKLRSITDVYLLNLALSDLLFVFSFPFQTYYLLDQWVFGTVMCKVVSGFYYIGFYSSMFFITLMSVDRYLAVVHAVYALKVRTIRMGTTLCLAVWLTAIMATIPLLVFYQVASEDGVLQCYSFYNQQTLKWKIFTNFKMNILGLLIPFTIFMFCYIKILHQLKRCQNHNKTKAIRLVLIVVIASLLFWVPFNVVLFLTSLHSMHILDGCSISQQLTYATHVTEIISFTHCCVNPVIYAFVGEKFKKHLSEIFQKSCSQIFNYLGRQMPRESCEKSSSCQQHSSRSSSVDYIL
T2 sequence (G7NYJ2 entry or part of it): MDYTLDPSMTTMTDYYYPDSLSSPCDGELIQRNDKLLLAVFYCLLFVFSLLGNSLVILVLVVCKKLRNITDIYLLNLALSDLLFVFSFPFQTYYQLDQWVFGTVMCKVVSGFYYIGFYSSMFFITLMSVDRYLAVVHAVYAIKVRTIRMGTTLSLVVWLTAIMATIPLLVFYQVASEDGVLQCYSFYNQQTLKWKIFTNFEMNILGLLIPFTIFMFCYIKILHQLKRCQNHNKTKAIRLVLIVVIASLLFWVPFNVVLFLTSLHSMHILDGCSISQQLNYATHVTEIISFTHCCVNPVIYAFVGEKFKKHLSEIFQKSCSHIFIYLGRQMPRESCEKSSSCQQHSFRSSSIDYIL

| IC50 (human CCR8 [10]) | Max Inhibition (%) (human CCR8 [10]) | IC50, inhibition of CCL1 induced β-Arrestin recruitment (human CCR8 [12]) | Max Inhibition (%), CCL1 induced β-Arrestin recruitment (human CCR8 [12]) | IC50 (human CCR8 [13]) | Max Inhibition (%) (human CCR8 [13]) | also measured | Binder |
| --- | --- | --- | --- | --- | --- | --- | --- |
| – | – | – | – | – | – | EC50, ADCC with human PBMC (human CCR8 [1]): 0.002 nM; Max specific lysis (%), ADCC with human PBMC (human CCR8 [1]): 8.76%; EC50 (cynomolgus CCR8 [2]): 0.081 nM; Max MFI (cynomolgus CCR8 [2]): 26500 MFI; EC50 (human CCR8 [3]): 0.0518 nM; Max MFI (human CCR8 [3]): 7470 MFI; IC50 (human CCR8 [4]): 0.137 nM; Max Inhibition (%) (human CCR8 [4]): 99.5% | Hu149-4 (antibody, human IgG1, V domains shown, humanized, human IgG1; also called Hu149-4 HuIgG1) VH: EVQLVESGGGLVQPGGSLKLSCAASGFTFNTYAMNWVRQASGKGLEWVGRIRSKSNFYATYYAASVKGRFTISRDDSKNTAYLQMNSLKTEDTAVYYCTRGRDYGSSYAMDYWGQGTLVTVSS VL: DIVMTQSPLSLPVTPGEPASISCRSSKSLLHSNANTYLYWFLQKPGQSPQLLIYRMSNLASGVPDRFSGSGSGTDFTLKISRVEAEDVGVYYCMQHLEYPLTFGGGTKVELK |
| – | – | – | – | – | – | EC50, ADCC with human PBMC (human CCR8 [1]): 0.41 nM; Max specific lysis (%), ADCC with human PBMC (human CCR8 [1]): 13.1%; EC50 (cynomolgus CCR8 [5]): 65.3 nM; Max MFI (cynomolgus CCR8 [5]): 238 MFI; IC50 (human CCR8 [6]): 0.17 nM; Max Inhibition (%) (human CCR8 [6]): 96.4%; EC50 (human CCR8 [7]): 0.091 nM; Max MFI (human CCR8 [7]): 5050 MFI | CM348 (antibody, V domains shown, CM348 is not defined in words; also called CM348 HuIgG1; parental antibody CM348) VH: QVQLVETGGGLVRPGNSLKLSCVTSGFSFSNYRMHWLRQPPGKRLEWIAVITVKSDNYGANYAESVKGRFTISRDDSKSSVYLQMNRLREEDTATYYCSSLGRVAYWGQGTLVTVSA VL: DIVMTQSQKFMFTSVGDRVSVTCKASQNVDTNVVWYQQKPGQSPKALIYSASSRYSGVPDRFTGSGSGTDFTLTISNVQSEDLAEYFCQQHNSFPLTFGAGTKLELI |
| – | – | – | – | – | – | GeoMean AF647 (RL1-H) of CHO-K1-human CCR8 / GeoMean AF647 (RL1-H) in H12(NC) (human CCR8 [8]): 2.2 | 149-9 scFv (WT) (scFv, VH-VL format with (G4S)3 linker) scFv: EVQLVESGGGLVQPGGSLKLSCAASGFTFNTYAMNWVRQASGKGLEWVGRIRSKSNFYATAYAASVKGRFTISRDDSKNTAYLQMNSLKTEDTAVYYCTRGRDYGSSYAMDYWGQGTLVTVSSGGGGSGGGGSGGGGSDIVMTQSPLSLPVTPGEPASISCRSSKSLLHSNANTYLYWFLQKPGQSPQLLIYRMSNLASGVPDRFSGSGSGTDFTLKISRVEAEDVGVYYCMQHLEYPLTFGGGTKVELK |
| – | – | – | – | – | – | GeoMean AF647 (RL1-H) of CHO-K1-human CCR8 / GeoMean AF647 (RL1-H) in H12(NC) (human CCR8 [8]): 4.6 | VH-PH5-P2B6(LCDR3) (scFv) scFv: EVQLVESGGGLVQPGGSLKLSCAASGFTFNTYAMNWVRQASGKGLEWVGRIRSKSNFYATAYAASVKGRFTISRDDSKNTAYLQMNSLKTEDTAVYYCTRGRDYGSSYAMDYWGQGTLVTVSSGGGGSGGGGSGGGGSDIVMTQSPLSLPVTPGEPASISCRSSKSLLHSNANTYLYWFLQKPGQSPQLLIYRMSNLASGVPDRFSGSGSGTDFTLKISRVEAEDVGVYYCMQHLKYPLTFGGGTKVELK |
| 0.733 nM | 96.4% | 0.61 nM | 32% | 0.917 nM | 98% | IC50 (human CCR8 [9]): 0.97 nM; Max Inhibition (%) (human CCR8 [9]): 79.4%; EC50 (human CCR8 [11]): 0.173 nM; Max MFI (human CCR8 [11]): 1930 MFI; EC50 (cynomolgus CCR8 [14]): 0.145 nM; Max MFI (cynomolgus CCR8 [14]): 3440 MFI | 149F2C10 (antibody, V domains shown, purified murine hybridoma antibody) VH: EVQLVESGGGLVQPKGSLKLSCAASGFTFNTYAMNWVRQAPGKGLEWVARIRSKSNFYATYYADSVKDRFTISRDDSQDMLYLQMNILKTEDTAIYYCVRGRDYGSSYAMDYWGQGTSVTVSS VL: DIVMTQAAPSVPVTPGESVSISCRSSKSLLHSNGNTYLYWFLQRPGQSPQLLIYRMSNLASGVPDRFSGSGSGTAFTLRISRVEAEDVGVYYCMQHLEYPLTFGAGTKLELK |
| 0.599 nM | 96.6% | 0.46 nM | 42% | 0.602 nM | 97.9% | – | 164G10D6 (antibody, V domains shown, purified murine hybridoma antibody) VH: EVQLVESGGGLVQPKGSLKLSCAASGFTFNTYAMNWVRQAPGKGLEWVARIRSKSNFYATYYADSVKDRFTISRDDSQDMLYLQMNILKTEDTAIYYCVRGRDYGSSYAMDYWGQGTSVTVSS VL: DIVMTQAAPSVPVTPGESVSISCRSSKSLLHSNGNTYLYWFLQRPGQSPQLLIYRMSNLASGVPDRFSGSGSGTAFTLRISRVEAEDVGVYYCMQHLEYPLTFGAGTKLELK |
| 0.836 nM | 96.2% | 6.57 nM | 33.8% | 0.661 nM | 98.2% | – | 153D4G2 (antibody, V domains shown, purified murine hybridoma antibody) VH: EVQLVESGGGLVQPKGSLKLSCAASGFTFNTYAMNWVRQAPGKGLEWVARIRSKSNFYATYYADSVKDRFTISRDDSQDMLYLQMNILKTEDTAIYYCVRGRDYGSSYAMDYWGQGTSVTVSS VL: DIVMTQAAPSVPVTPGESVSISCRSSKSLLHSNGNTYLYWFLQRPGQSPQLLIYRMSNLASGVPDRFSGSGSGTAFTLRISRVEAEDVGVYYCMQHLEYPLTFGAGTKLELK |
| 0.891 nM | 100% | 1.04 nM | 41.3% | 0.728 nM | 98% | – | 160D1E3 (antibody, V domains shown, purified murine hybridoma antibody) VH: EVQLVESGGGLVQPKGSLKLSCAASGFTFNTYAMNWVRQAPGKGLEWVARIRSKSNYYATYYADSVKDRFTISRDDSQDMLYLQMNNLKTEDTAIYYCVRGRDYGSSYAMDYWGQGTSVTVSS VL: DIVMTQAAPSVPVTPGESVSISCRSSKSLLHSNGNTYLYWFLQRPGQSPQLLIYRMSNLASGVPDRFSGSGSGTAFTLRISRVEAEDVGVYYCMQHLEYPLTFGAGTKLELK |
| 1.64 nM | 87.6% | 1.7 nM | 30.9% | 2.73 nM | 95% | – | 204A2G12 (antibody, V domains shown, purified murine hybridoma antibody) VH: DVQLQESGPGLVKPSQSLSLTCSVTGYSITSGYYWNWIRQFPGNKLEWMGYISYDGTNNYNPSLKNRISITRDTSKNQFFLKLTSVTTEDTATYYCARQVGLRRAWFAYWGQGTLVTVSA VL: DIQMTQSSSFLSVSLGGRVTITCKASDHINYWLAWYQQKPGNAPRLLISGATSLETGVPSRFSGSGSGKDYTLTITSLQNEDVATYYCHQYWSTPTFGSGTKLEIK |
